For the test, the target named is T1, human B7-H3 protein expressed on transfected 293 cells (human, UniProt Q5ZPR3 29-534).
T1 construct: also called B7-H3/293 cells
T1 sequence: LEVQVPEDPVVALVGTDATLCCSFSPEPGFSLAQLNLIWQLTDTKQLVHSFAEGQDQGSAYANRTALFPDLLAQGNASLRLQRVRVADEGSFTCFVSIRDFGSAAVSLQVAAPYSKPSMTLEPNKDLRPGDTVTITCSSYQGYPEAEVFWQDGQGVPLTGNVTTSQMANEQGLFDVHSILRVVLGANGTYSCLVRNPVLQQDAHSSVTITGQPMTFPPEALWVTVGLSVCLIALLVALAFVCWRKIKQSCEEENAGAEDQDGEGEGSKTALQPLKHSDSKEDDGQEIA
Nature of the test: FACS on 293 cells transfected with B7-H3. From the text:
It has been reported that both CTLA-4 nd ICOS can be induced to express on the surface of activated T cells, while CD28 expresses constitutively.

B1: ICOSIg (Fc fusion, UniProt Q9Y6W8 21-140, looked up)
chain: EINGSANYEMFIFHNGGVQILCKYPDIVQQFKMQLLKGGQILCDLTKTKGSGNTVSIKSLKFCHSQLSNNSVSFFLYNLDHSHANYYFCNLSIFDPPPFKVTLTGGYLHIYESQLCCQLK
notes: extracellular domain; not shown: Fc constant region of mouse IgG2a, inferred from 'similar methods'
For B1, the binding result is given as “no binding”.

(Values after patent publication US20020198143A1 (Human Genome Sciences, published 2002).)
